Test results reported in the domain aggregation screens of Martell et al. (2025).

Experiment: soluble fraction after stress (log2 fold change); higher = more stays soluble; pooled small domains, quantitative proteomics
Settings: stress: 50 degC
Summary of the method: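 Quantitative proteomics served as the high-throughput read-out for pooled custom libraries of small protein domains. Each was stressed at 50°C. Aggregation propensity is expressed as the base-two log fold change in soluble protein after stress. A higher value means a larger share of the protein remains in solution.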

| Sequence | soluble fraction (log2) |
| --- | --- |
| HMEELELTIDGEMVGRIDKQLGHHFDQFSRSQIQHWIEDGHVLVNGKQVKPKYKLLVGDHVQIIPEEPQK | 0.25 |
| HMNRTKYYDFEGHPAKVVRLTLPVYLNKIGDEVVVYDSQKFAREASPISESQYNRMVAEIFQP | -0.354 |
| HMQSISLEEAKSAALDDAQLGIDEVEFLKTERNTDGDTSYYDIQFLVNGTIYKYQINTETGAILHVDYEA | -0.052 |
| HMEPKIKQIVPNVVNYPVEDAKNVLVNSGLIVQIRGQGNIVYDQVPKGGAEVTRGTTVILDLNPPPGA | 0.42 |
| HMLGDAVLRQVLETIPEDPAVDYLELRRNTGMTEADLDRVLADLENLGVINKKRTVEQVLYWRT | -0.294 |
| HMPEVAHTIDMEAVNKHWDELPEREQRILVMRFYGNLTQTEIGERLGISQMHVSRLLARALSHLKSRLLD | -3.37 |
| HMVDLEINGRQTLQFVANKYGIPVEKLATDLNIPSDRFGEKLGRLRRQYAFTMNDVRKSILKNK | 0.00739 |
| HMNVAELIEGHEAEIAEVLKEFSLLYLMRLADELGEMTKSSSGNGPFQVLKGLVYEEIARRG | -1.09 |
| HMTTQERVSYSAFINDVETGRVAKVVISGYTIEGTRTNNSSFVTERPYGVDSNLSEVLMQNSVSIEGKA | -0.129 |
| HMRSFGTVAQARGRWKAFYVGPDKRRHTPGVTFSNPIRAQGWLAQELTLIELGQWTPPAQRREKAEVAS | -2.4 |
| HMEGGLIMDRIEKGLQSGVMPDLRGLNLKDALYLLESYVQVQVIGSGGVIKQSIKTGDKFIMGSVIKLEL | -0.0813 |
| HMLPYGDRRRHTDNTISRIRELAAALDDSGIADRLNQDGYVTPEGKPFTYAGVRWIRYKYDISGPYERN | -1.5 |
| HMKTEIKSPLPGIVLKIFVRTGEYVDKNQRLFSLEAMKMENEIKAERAGVIAGIRISEGQSVLQDEVIMEM | -0.297 |
| HMTNVFSIIGKKALVIKDIDPIHSSGQIKLNGEVWSAETENDEIIKEGSEVEVLKINGVKAIVKLV | -0.107 |
| HMEVEIPSREALLGLVQKHLKPVSFDEFVSHFKLGDERQQVGIKRRLRAMERDGQLVYTKANSYGLPDRM | 0.194 |
| HMGPELGENEKLIFDIIKKESKMELGILKAQVDLSNKKWDKALKGLATHGLTKVNKTDDGLFIELI | -0.095 |
| HMPAWKINQELQATVIATKANQTRLRIEGQTFETQTAIALKPGQSLLIKVVSLEPQISFALI | -1.45 |
| HMDKPIFTLRENEVLYWASMGKTYAEIATIVGISVRTVKFHMGNVVSKLGVSNARQAIRLGVELDLITPMQ | -2 |
| HMKVQEMTANSFLTQWEAGNVKTLDILPEGIIKGELNDGTKFQLYYSSAAGLIDDVKKNPEKFANTTVSEK | 0.129 |
| HMGSLVKLQSAAELHQAGRSAEAVPILLEVLATNPRLVDGWEILANALEKLGRLDEALAALKKTVALSPPG | -0.694 |
| HMPEVYPFEVAEDDAGKRLDVFLSEEIEEFTRSFIQKLIAGGLASVNRAPARASYRVKPRDLVELQVPE | -0.448 |
| HMTFDWAAYEISEKEIRVMSLVAEGFSNKEIAQELFLSEGTVRNYISNILEKLGLRDRTQLAVHYLKAV | -1.28 |
| HMKSIFIRADELAAELDVSKALAYKMINQWNEELKAKGYTTVGGRVSRQYYYEKIYGAENVFDF | -2.37 |

| Sequence | soluble fraction (log2) |
| --- | --- |
| HMGGGRELGLDPETGKKISVRLGKFGPFVQLGESGEEDKPVFANLGKNQSIATLSLEEAIALLARPK | 0.246 |
| HMKYKKYKLLKDLPTFKAGQLAYISKTGNLIAGTPENQKTTETGLIIMIYHETTLKKFPNILTEWFEEIE | -2.71 |
| HMKDMKISTKNLLQELAKNYPDQTSFRKNVIETTARAMGYTGKDFYPLLTTDNRVKIGTYDLATFLRSI | -0.718 |
| HMRRSKVMLESILDEIPQMGQARRAALLEQFGSVAALRKASLAEIAMTPGIGEKIAVIIFEYLQKSSH | -1.17 |
| HMTRTISKVAKELAINIETVRFYERRGLIEQPPKPELGYRHYPDETVNRIRFIKRAQELGFTLEEIANLLS | -1.75 |
| HMNSNLSLTSYEEKIFFLLEKEKNLDELILESSFKAGEILSILMDLEIKHAIVSIPGGKYRRK | -2.84 |
| HMEEKEIGQTLSVKIRENVLSKLDMTRDLEDEEVKHIIEHEIWLAAKKHYISLEERNSIKRGIFNSL | -0.573 |
| HMGGELLSLRRIGTLTGISYPTLLRYVARYGEQIPQTGTGRSRRFPPAAVPVFQELRATRGRAPRATA | -0.063 |
| HMHFDQILAHAMDERGMNAVQLASLTGLSSGAISRYLAGDRQPTVYSIQQIAKALGVSADYLVG | -0.884 |
| HMRSVEVAAEPGMVLEDRQTGFVGAVVAVEKSGGTHLVVLEDRHGLRRGFPLGPGFWLEGRPVVLAPPP | -0.227 |
| HMKTNQINVSGLSKEKNFEVLESLDVYKFYNLFFLNKIKIDQLINSYNHIDNYSVFKKYPSSLIVKLSE | 0.0996 |
| HMLLSTHVVVAKEDVQIGTRLQPAMLQVVDWPSASPLKNPLTSIEQATDRVVNMPLVKGEPISMSKLAAKG | 0.00241 |
| HMGSIGAMLSSPELYGKLATNPATRGFLSQPDFIAMLTDVQKNPDKFGSYMSDPRMMQVLSVALG | 0.118 |
| HMDTNELIDRYVNEVGQHLPRKTRADIEMELRSLLLDTLEEQSGGEPTPKMAAEVLREFGHPEEIAAQYH | -0.0557 |
| HMNNDFVERLRKLFGHASMAEIARRIDVPHATIRNYFQGRLPAPEVLIKLARETGVSLNWLLTGEGKMFA | -0.253 |
| HMSREQARRFYFDTWAKHRASQPLTDLEKIALTVMLLHPEYHSLLDKPDHYVDKDYSPEAGQTNPFLHM | -1.2 |
| HMQISDDSELIKIVDNILANSQKQIDDYHNGKTNLFGFFVGQVMKETKGKANPVKVNEILKDKL | 0.00641 |
| HMHGYLSDPAARLIRARRKTLSIRITQEGNLEIRAPLGMPKGEIEAFLKEKAQWIETHRAKVLAEYA | -2.24 |
| HMFNPEQDPKQLTGRERAVADLIGLGANNAEIAIRLSMSERTVKAHLTSIFQQLNVRDRVQLALVMNQL | -0.585 |
| HMDTIRINSGSTVKEVAEYLGIPVPEVIKKLMSMGELATLTKTLSDDHIEVLAEEFEKKIKIVHVGEEAD | 0.0343 |
| HMGLPAWVPQNYIDRVTAIYDYSADKDDELTFNEGSTIFVLKKNDDGWWEGVMDGVTGLFPGNYVEAT | -0.8 |
| HMALPDSEKRQWLVDEVNERGLKLPDDVLEYLFARVGRSQAHLVDVIEKLDFESLAQSRKLTIPFVREVLK | -0.152 |
| HMTTTSGLIKTIQTGRRKLGMDDETYRALLADVSGGKTSSKDLNAYQLKEVLRRMREAGFRS | 0.218 |

| Sequence | soluble fraction (log2) |
| --- | --- |
| HMASVVEQVQVSNDISLFRQQNSPYWQARFKVAGKWYTRTTKRTEQTQAAFRAAELRSEVQTKISQGIPLR | -0.866 |
| HMAQPIPSGSDIREAREAAGMNLRDFARMVGGGAIGTWSHYETGKPIRVKSISPEVWQRVRDFILQHGK | -0.417 |
| HMNYYDLLGIPKSATKQQIRKAYRTKAKEFHPDVNGPFNSHMHFLLLKQAYETLMDANMRHVYDMALIS | -1.35 |
| HMVSLPSPLAGKVVSLTVQAGQEVKEGDEIMVLEAMKMNTQVHAPSSGRILALRVQPGDQVEEGQTLVTMG | 0.0826 |
| HMREFQVMKQELQEMVHQRLDMSTELSDEAIGDVIDEVIMEKSRNMYISSVTKLTLRQELFNAIR | -0.629 |
| HMKRNTKAEVLEILLNSGETPVSGERLAENLGISRNAVWKAVTALKEDGYNISAKRNSGYILNKS | -0.0063 |
| HMEPAPELTPREQQVLARIALGMTDKAIAEELGVSHQTVRNHVARIYQKIKVHSRSQAVVWAREKGI | -0.192 |
| HMDPSDQLYTVPPSAEGLRLDLFLVQHVPHMTRALATQLTGAGQVRVNGRRAKKGDRLPSGAQVRLEQAP | -0.256 |
| HMNLGLTGDPSVLYSILLQRGDSSRADLQRQTGWSLSKTTLVLNQLLAQKLIVQVGAGRSTQYRVIN | -0.983 |
| HMQWQPSEEAMQRLEQHGIPRAFSFSQLDAFVLQGQEQGSNRNDWNTRFFRFIKNQWVYAQN | -1.62 |
| HMGPVDFYQMFISELQHLAEKPVTVDALIESTQLHKSQLTEWLKRAVDDGVVKKLNRPARFQVKNK | -0.029 |
| HMNNLVTRREVEILGWIKEGKTTSDIAGILSLSPFTVKNHVQNILKKLGARSRSHAVAQAINLGLLH | -0.773 |
| HMVAADTVQVPDVTGKTVADAKQALISAGLQVGTVTAKDGKETANTILETSPAAGTSVDKGSKVNLVYSTG | -0.185 |
| HMGDIMLLFKENGKVYFLVGNQYTYVKNPTELSAIKTMMKQAGYDTHEHTNTTQVAYIKRLATE | -2.11 |
| HMTKSSAYLSAEKLINKKQYSDAIVKLNDALVTDSKNADIYNYLGFSHRKLGKMEDAAFFYNKALE | 0.219 |
| HMYSFPHQLLKLRTEKQLSQAELATRLFVSRQAVSKWENGDAEPSIDKLILLAKVFNVSLDRLILGT | -1.43 |
| HMDIKEIIKNRRIELGLTLKEVATAVGVSEGTVSRWESGNITNMKRNKIAALAKTLQIPPTTI | -0.259 |
| HMSAVVAPLPGLIQNILVKVGDTVHAGQHVLTMEAMKMENEIQTNRDGIIKDIKVRIGDSVNEGDTLIIL | -0.0224 |
| HMRQIRELFRLKFGSLLPTSDRQIAAQLGVARSTVAEYLERARAAGLSWPLPLDLSDADLEERLFA | -2.75 |
| HMPPNVLSEREQEVLQLAADGMSNKEMGSELYIAPTTVRDHMQSIMRKLQVNSRTAAAVAGLKLGLLD | -0.1 |
| HMIGTPLSEWQKDAPEEITRDQIAELVILKFVTVEQLALASDAQLQRIGMGGVGLRERAKLYLNRK | -1.15 |
| HMKYSNDEVERDLYVRGVIYQIGDLVENKLDGTSGEVVRRGPNYVQYTDGENFYKAFLSALQEQK | -0.354 |
